This assay has as its target RPN13 pru domain (Arabidopsis thaliana) (UniProt O48726). The assay is described as follows: ITC.
Chain of UniProt O48726 (O48726 9-121): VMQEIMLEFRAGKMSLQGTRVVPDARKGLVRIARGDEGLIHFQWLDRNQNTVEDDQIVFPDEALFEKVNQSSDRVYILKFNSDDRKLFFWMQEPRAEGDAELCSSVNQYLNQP

Take “TTOP UBL domain (from UniProt F4K1H0 1-879) (domain or fragment)”: the Kd is 29 µM and the stoichiometry N is 1.

Values taken from publication doi:10.1101/2023.01.07.523072.
